Residue numbers refer to the chain shown, from its start. Numbers in names are those of the source.
T1: apelin receptor (AGTRL1) on CHO-K1 cells (UniProt P35414 1-380, limits assumed)
T1 sequence (looked up): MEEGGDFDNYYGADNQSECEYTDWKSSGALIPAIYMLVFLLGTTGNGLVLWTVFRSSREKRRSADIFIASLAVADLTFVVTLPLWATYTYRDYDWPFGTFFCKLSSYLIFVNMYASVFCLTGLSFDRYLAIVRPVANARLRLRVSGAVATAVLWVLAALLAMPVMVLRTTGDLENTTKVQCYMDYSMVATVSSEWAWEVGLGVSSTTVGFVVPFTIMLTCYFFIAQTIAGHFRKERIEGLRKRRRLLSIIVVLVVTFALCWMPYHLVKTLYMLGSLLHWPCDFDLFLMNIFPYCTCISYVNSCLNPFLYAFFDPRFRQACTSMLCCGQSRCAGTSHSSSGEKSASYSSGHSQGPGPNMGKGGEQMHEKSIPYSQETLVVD

B1: ELA-I (Fc fusion)
chain: DKTHTSPPSPAPEAAGGPSVFLFPPKPKDTLMISRTPEVTCVVVDVSHEDPEVKFNWYVDGVEVHNAKTKPREEQYNSTYRVVSVLTVLHQDWLNGKEYKCKVSNKALPAPIEKTISKAKGQPREPQVYTLPPSREEMTKNQVNLTCLVKGFYPSDIAVEWESNGQPENNYKTTPPVLDSDGSFFLNSTLTVDKSRWQQGNVFSCSVMHEALHNHYTQKSLSLSPGKGGGGSGGGGSGGGGSKLRKHNSLQRRYMPLHSRVPFP
B2: ELA-J (Fc fusion)
chain: B1 chain with S249C, R252E, Y254C
B3: APL-B: Fc-linker fusion of apelin analogue QRPRLSHKGPMVF (P12V) (protein)
chain: MRAWIFFLLCLAGRALADKTHTSPPSPAPEAAGGPSVFLFPPKPKDTLMISRTPEVTCVVVDVSHEDPEVKFNWYVDGVEVHNAKTKPREEQYNSTYRVVSVLTVLHQDWLNGKEYKCKVSNKALPAPIEKTISKAKGQPREPQVYTLPPSREEMTKNQVNLTCLVKGFYPSDIAVEWESNGQPENNYKTTPPVLDSDGSFFLNSTLTVDKSRWQQGNVFSCSVMHEALHNHYTQKSLSLSPGKGGGGSGGGGSGGGGSQRPRLSHKGPMVF
B4: APL-E: Fc-linker fusion of apelin analogue QRPRLSHKGPHPF (M11H) (protein)
chain: B3 chain with M270H, V271P
B5: APL-F: Fc-linker fusion of apelin analogue QRPRLSHKGPAPY (M11A, F13Y) (protein)
chain: B3 chain with M270A, V271P, F272Y
B6: APL-G: Fc-linker fusion of apelin analogue QRPRLSHKGPMAF (P12A) (protein)
chain: B3 chain with V271A
B7: ELA-A: Fc-linker fusion of wild-type elabela-22 KLRKHNCLQRRCMPLHSRVPFP (protein)
chain: MRAWIFFLLCLAGRALADKTHTSPPSPAPEAAGGPSVFLFPPKPKDTLMISRTPEVTCVVVDVSHEDPEVKFNWYVDGVEVHNAKTKPREEQYNSTYRVVSVLTVLHQDWLNGKEYKCKVSNKALPAPIEKTISKAKGQPREPQVYTLPPSREEMTKNQVNLTCLVKGFYPSDIAVEWESNGQPENNYKTTPPVLDSDGSFFLNSTLTVDKSRWQQGNVFSCSVMHEALHNHYTQKSLSLSPGKGGGGSGGGGSGGGGSKLRKHNCLQRRCMPLHSRVPFP
B8: ELA-B: Fc-linker fusion of elabela analogue KLNKHNCLQRRCMPLHSRVPFP (R3N) (protein)
chain: B7 chain with R262N
B9: ELA-C: Fc-linker fusion of elabela analogue KLRKHNCLQRRCMILHSRVPFP (P14I) (protein)
chain: B7 chain with P273I
B10: ELA-F: Fc-linker fusion of elabela analogue KLRKHNCLKRRCMPLHSRVPFP (Q9K) (protein)
chain: B7 chain with Q268K
B11: ELA-G: Fc-linker fusion of elabela analogue KLRKHNCLQRRCMPLHSYVPFP (R18Y) (protein)
chain: B7 chain with R277Y
B12: ELA-H: Fc-linker fusion of elabela analogue KLRKHNCLQRRCMPYHSRVPFP (L15Y) (protein)
chain: B7 chain with L274Y
B13: ELA-I: Fc-linker fusion of elabela analogue KLRKHNSLQRRYMPLHSRVPFP (C7S, C12Y) (protein)
chain: B7 chain with C266S, C271Y
B14: ELA-K: Fc-linker fusion of elabela analogue KLRKHNCLIRRCMPLHSRVPFP (Q9I) (protein)
chain: B7 chain with Q268I
B15: ELA-L: Fc-linker fusion of elabela analogue KLRKHNCATRRCMPLHSRVPFP (L8A, Q9T) (protein)
chain: B7 chain with L267A, Q268T
B16: APL-H: Leader-Fc-linker fusion of apelin analogue QRPRLSHKGPMHW (P12H, F13W) (protein)
chain: B3 chain with V271H, F272W
B17: APL-I: Leader-Fc-linker fusion of apelin analogue QRPRLSHKGPAAW (M11A, P12A, F13W) (protein)
chain: B3 chain with M270A, V271A, F272W
B18: APL-J: Leader-Fc-linker fusion of apelin analogue QRPRLSHKGPAAY (M11A, P12A, F13Y) (protein)
chain: B3 chain with M270A, V271A, F272Y
B19: APL-K: Leader-Fc-linker fusion of apelin analogue QRPRLQHKNPMAF (S6Q, G9N, P12A) (protein)
chain: B3 chain with S265Q, G268N, V271A
B20: APL-L: Leader-Fc-linker fusion of apelin analogue QRPRLQHKNPMAW (S6Q, G9N, P12A, F13W) (protein)
chain: B3 chain with S265Q, G268N, V271A, F272W

Experiments:
APJ-eGFP fusion protein = assay: Internalization assay, CHO-M1 cells expressing APJ-eGFP, high-content imaging; assay type: cell-based; design: key: 0: No Internalization; >1000; 2: 100-1000; 3: 10-100; 4: <10; details: lowest concentration at which maximum internalization was observed; 0.914 nM to 2000 nM
Procedure: In this example, the internalization of exemplary apelin receptor agonist was assessed. CHO-M1 cells expressing an APJ-eGFP fusion protein were stained and plated in a 96-well plate. Apelin receptor agonists were serially diluted and added to the wells at concentrations ranging from 0.914 nM to 2000 nM. The cells were later imaged using an Operetta CLS™ high-content analysis system. APJ-eGFP signal was measured in the membrane and cytoplasmic region, and the ratio of membrane signal to total signal was calculated (E ratio). An internalization score was assigned based on the lowest concentration of the compound at which maximum internalization was observed. The internalization score for each apelin receptor agonist was plotted against the EC50 values for cAMP signaling and beta-arrestin signaling as shown in FIG. 2 and FIG. 3.

[1] = biological target: T1, apelin receptor (AGTRL1) on CHO-K1 cells; assay: cell-based or functional assay
[2] = Proteolysis during production detected using mass spectroscopy; assay type: physicochemical; details: proteolytic stability
From the text: Proteolysis during production was detected using mass spectroscopy, which provides insights into the proteolytic stability of the apelin receptor agonists.

Molecule | Internalization Score (APJ-eGFP fusion protein) | Proteolysis During Production? [2] | further results
CSCC[C@H](NC(=O)[C@@H]1CSSC[C@H](NC(=O)[C@H](CC(N)=O)NC(=O)[C@H](Cc2c[nH]cn2)NC(=O)[C@H](CCCCN)NC(=O)[C@H](CCCNC(=N)N)NC(=O)[C@H](CC(C)C)NC(=O)[C@@H](N)CCCCN)C(=O)N[C@@H](CC(C)C)C(=O)N[C@@H](CCC(N)=O)C(=O)N[C@@H](CCCNC(=N)N)C(=O)N[C@@H](CCCNC(=N)N)C(=O)N1)C(=O)N1CCC[C@H]1C(=O)N[C@@H](CC(C)C)C(=O)N[C@@H](Cc1c[nH]cn1)C(=O)N[C@@H](CO)C(=O)N[C@@H](CCCNC(=N)N)C(=O)N[C@H](C(=O)N1CCC[C@H]1C(=O)N[C@@H](Cc1ccccc1)C(=O)N1CCC[C@H]1C(=O)O)C(C)C [Elabela-22, elabela-22, reference compound] | 1 (>1000) |  | 
B1 |  |  | beta-Arrestin EC50 (nM) Exp. 1 [1]: 17.3 nM; beta-Arrestin EC50 (nM) Exp. 2 [1]: 150 nM; cAMP EC50 (nM) Exp. 1 [1]: 22.9 nM; cAMP EC50 (nM) Exp. 2 [1]: 3.19 nM
B2 |  |  | beta-Arrestin EC50 (nM) Exp. 1 [1]: 73.7 nM; cAMP EC50 (nM) Exp. 1 [1]: 18.6 nM; cAMP EC50 (nM) Exp. 2 [1]: 133 nM
B3 | 2 (100-1000) | No | 
B4 | 1 (>1000) | Yes | 
B5 | 1 (>1000) | No | 
B6 | 3 (10-100) | No | 
B7 | 3 (10-100) | No | 
B8 | 3 (10-100) | No | 
B9 | 2 (100-1000) | No | 
B10 | 3 (10-100) | No | 
B11 | 1 (>1000) | No | 
B12 | 2 (100-1000) | No | 
B13 |  | Yes | 
B14 | 2 (100-1000) | No | 
B15 | 2 (100-1000) | No | 
B16 | 0 | No | 
B17 | 1 (>1000) | No | 
B18 | 1 (>1000) | No | 
B19 | 0 | No | 
B20 | 0 | No | 

From US20240383958A1, “APELIN RECEPTOR AGONISTS AND USES THEREOF” (VISTERRA, INC., priority 2023, published 2024)
